Experimental findings from publication PMC11576762 are described below.

This assay has as its target human TPC1 with C-terminal mVenus (human) (UniProt Q9ULQ1). Description: FRET or BRET; Two-hybrid FRET in live HEK293 cells; donor mTq2 constructs (0.7 µg DNA), acceptor mVenus constructs (1.5 µg DNA); confocal imaging, regions of interest around mVenus-positive lysosomes; maximum FRET efficiency from two-hybrid curves; no apilimod. In general terms: Bioluminescence resonance energy transfer reports proximity on the nanometre scale.

Regarding “mTq2-Rab5 (from UniProt P20339 1-215) (natural protein)”, the FRET efficiency is 29%.
